# Test system: T1, Cc1cc(=O)oc2c(F)c(OP(=O)(O)O)c(F)cc12
# T1 construct: Full-length human PTPN6 with an N-terminal hexahistidine (His6) tag
# Experiment: Michaelis-Menten kinetics, fluorescence (Km)
# Format: biochemical, Homo sapiens
substance,measurement,value
PTPN6 (Homo sapiens),Km,86.26 µM
